We go through one substance from patent US20160075784A1.

Experiment [1] concerns the target CS1-specific CAR (anti-CS1-scFv-CD28-CD3ζ; Pinco-CS1-CAR construct), expressed on transduced primary human T cells. As to the kind of experiment: flow cytometry, CS1-CAR-transduced T cells of patients with relapsed myeloma, double staining with anti-CD3. A general note: Flow cytometry measures light scatter and fluorescence of single cells or particles in a stream.

For experiment [2] the target is unchanged. In words: flow cytometry, CS1-CAR-transduced healthy donor T cells.

CS1-specific CAR (anti-CS1-scFv-CD28-CD3ζ; Pinco-CS1-CAR construct), expressed on transduced primary human T cells, sequence (chain, as listed by the source): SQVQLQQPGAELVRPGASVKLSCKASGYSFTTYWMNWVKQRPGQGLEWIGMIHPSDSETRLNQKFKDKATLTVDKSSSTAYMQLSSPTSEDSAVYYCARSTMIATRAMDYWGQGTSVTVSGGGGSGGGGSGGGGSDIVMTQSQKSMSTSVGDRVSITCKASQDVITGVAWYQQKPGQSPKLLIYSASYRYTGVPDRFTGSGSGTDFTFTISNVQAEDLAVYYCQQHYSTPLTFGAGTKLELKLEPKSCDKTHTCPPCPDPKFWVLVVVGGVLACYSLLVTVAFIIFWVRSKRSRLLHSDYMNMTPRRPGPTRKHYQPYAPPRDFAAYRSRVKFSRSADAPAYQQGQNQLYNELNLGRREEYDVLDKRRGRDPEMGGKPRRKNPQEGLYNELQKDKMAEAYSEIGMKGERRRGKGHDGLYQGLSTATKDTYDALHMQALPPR

For “biotin-labeled goat anti-mouse (Fab)2 polyclonal antibody (Jackson ImmunoResearch)”, the results for the percent of cells stained in experiment [1] and in experiment [2] were 60.7% and 70.3%, respectively.
